Measurements reported in US6403637.

Key:
[1] = target: collagenase-3 receptor and low density lipoprotein receptor-related protein on MEF-1 cells; assay: competition with ^125I mouse collagenase-3 on MEF-1 cells; 200-, 400- and 800-fold excess of competitor
[2] = target: collagenase-3 dual receptor system on UMR 106-01 cells (collagenase-3 receptor and low density lipoprotein receptor-related protein); assay: competition with ^125I mouse collagenase-3 on UMR-106-01 cells; 200-, 400- and 800-fold excess of competitor
[3] = target: collagenase-3 receptor (170 kDa protein) of mouse embryo fibroblasts MEF-1 and MEF-2 (mouse) (UniProt Q64449); assay: competition with ^125I mouse collagenase-3 on MEF-2 (LRP null) cells; 200-, 400- and 800-fold excess of competitor
[4] = target: collagenase-3 dual receptor system on UMR 106-01 cells (collagenase-3 receptor and low density lipoprotein receptor-related protein); assay: competition with ^125I mouse collagenase-3 on UMR cells
[5] = target: low density lipoprotein receptor-related protein of human chondrocytes (UniProt Q07954)
[6] = target: low density lipoprotein receptor-related protein of human chondrocytes (UniProt Q07954); assay: cell-based or functional assay
[7] = target: rat collagenase-3 receptor (170 kDa protein) of UMR 106-01 rat osteosarcoma cells and other rat cells (rat); assay: ^125I-labeled ligand at 8 nM on UMR cells, triplicate wells
[8] = target: rat collagenase-3 receptor (170 kDa protein) of UMR 106-01 rat osteosarcoma cells and other rat cells (rat); assay: ^125I-labeled ligand at 10 nM on UMR cells, triplicate wells

Chain of rat collagenase-3 receptor (170 kDa protein) of UMR 106-01 rat osteosarcoma cells and other rat cells (rat) (Q4TU93 31-1480): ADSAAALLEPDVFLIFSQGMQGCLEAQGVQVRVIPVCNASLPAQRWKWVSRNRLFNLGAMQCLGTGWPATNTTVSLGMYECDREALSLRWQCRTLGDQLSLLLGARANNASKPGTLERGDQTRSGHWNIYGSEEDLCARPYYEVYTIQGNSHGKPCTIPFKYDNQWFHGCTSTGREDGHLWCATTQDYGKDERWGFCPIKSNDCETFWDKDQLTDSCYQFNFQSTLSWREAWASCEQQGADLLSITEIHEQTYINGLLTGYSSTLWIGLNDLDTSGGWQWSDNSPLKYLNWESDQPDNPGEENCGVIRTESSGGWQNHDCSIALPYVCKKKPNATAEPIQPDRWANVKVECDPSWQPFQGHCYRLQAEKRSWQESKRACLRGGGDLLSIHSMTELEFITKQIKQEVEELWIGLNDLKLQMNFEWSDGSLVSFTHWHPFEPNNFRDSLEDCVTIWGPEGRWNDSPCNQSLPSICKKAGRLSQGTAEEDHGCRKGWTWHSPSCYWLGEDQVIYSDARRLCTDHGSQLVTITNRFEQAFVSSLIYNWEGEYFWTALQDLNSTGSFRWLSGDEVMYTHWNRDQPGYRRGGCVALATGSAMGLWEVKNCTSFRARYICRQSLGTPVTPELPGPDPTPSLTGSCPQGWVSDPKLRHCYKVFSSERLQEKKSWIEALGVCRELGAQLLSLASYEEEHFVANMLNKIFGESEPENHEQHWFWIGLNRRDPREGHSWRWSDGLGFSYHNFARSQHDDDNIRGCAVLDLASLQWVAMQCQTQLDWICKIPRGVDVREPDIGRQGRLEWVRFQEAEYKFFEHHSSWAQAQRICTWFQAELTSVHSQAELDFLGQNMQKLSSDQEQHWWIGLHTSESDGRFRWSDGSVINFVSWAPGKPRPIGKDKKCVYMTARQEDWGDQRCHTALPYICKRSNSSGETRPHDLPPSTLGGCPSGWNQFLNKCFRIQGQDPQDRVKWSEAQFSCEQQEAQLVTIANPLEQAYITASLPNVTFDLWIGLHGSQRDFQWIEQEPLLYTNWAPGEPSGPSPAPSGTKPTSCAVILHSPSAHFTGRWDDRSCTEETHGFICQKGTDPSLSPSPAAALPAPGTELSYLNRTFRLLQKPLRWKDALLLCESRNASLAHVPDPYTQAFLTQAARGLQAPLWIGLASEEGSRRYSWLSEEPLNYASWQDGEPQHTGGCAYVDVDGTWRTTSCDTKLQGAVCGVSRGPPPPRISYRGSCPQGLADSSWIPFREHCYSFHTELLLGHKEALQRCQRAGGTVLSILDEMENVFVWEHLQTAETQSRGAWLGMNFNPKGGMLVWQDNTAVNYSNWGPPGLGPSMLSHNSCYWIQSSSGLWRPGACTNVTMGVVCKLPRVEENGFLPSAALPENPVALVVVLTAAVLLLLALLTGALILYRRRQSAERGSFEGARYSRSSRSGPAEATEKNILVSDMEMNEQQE
Chain of collagenase-3 receptor (170 kDa protein) of mouse embryo fibroblasts MEF-1 and MEF-2 (mouse) (Q64449 31-1479): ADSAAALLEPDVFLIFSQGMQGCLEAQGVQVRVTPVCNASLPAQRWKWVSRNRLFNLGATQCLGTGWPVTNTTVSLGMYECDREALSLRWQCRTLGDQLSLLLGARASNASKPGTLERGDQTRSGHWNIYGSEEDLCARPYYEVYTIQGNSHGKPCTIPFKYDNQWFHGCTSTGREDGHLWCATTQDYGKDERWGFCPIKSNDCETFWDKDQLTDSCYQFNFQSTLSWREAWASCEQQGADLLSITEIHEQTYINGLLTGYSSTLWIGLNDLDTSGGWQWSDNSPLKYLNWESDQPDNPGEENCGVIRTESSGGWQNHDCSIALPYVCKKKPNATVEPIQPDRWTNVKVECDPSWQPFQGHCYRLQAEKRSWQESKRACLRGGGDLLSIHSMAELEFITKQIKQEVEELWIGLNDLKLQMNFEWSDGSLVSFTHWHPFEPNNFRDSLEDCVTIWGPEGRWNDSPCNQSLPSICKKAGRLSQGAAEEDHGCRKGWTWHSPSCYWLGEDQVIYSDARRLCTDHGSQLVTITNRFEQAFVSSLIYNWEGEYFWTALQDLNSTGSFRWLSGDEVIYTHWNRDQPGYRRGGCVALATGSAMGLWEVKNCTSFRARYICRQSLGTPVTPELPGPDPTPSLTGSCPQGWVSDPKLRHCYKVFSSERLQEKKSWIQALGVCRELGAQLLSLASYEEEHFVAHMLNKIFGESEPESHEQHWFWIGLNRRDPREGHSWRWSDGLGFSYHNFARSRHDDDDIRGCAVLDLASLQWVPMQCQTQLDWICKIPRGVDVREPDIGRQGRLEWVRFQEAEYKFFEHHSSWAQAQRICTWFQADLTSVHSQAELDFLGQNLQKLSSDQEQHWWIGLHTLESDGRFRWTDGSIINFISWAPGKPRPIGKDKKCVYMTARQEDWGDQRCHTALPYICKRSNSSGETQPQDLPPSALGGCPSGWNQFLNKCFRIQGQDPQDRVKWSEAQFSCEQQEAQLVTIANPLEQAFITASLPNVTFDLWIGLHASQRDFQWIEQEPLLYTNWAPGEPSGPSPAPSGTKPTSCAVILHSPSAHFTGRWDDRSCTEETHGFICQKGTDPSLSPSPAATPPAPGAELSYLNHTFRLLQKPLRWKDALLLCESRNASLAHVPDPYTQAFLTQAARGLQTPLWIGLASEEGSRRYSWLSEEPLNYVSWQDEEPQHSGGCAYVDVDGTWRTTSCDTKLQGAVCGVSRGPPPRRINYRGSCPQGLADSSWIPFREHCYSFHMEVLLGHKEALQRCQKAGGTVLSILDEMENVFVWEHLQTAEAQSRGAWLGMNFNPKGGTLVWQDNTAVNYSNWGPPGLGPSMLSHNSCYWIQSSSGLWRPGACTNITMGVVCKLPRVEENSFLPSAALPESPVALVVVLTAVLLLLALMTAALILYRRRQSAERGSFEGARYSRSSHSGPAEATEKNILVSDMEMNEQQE
Chain of human fibroblast collagenase-1 (MMP-1) (P03956 100-469): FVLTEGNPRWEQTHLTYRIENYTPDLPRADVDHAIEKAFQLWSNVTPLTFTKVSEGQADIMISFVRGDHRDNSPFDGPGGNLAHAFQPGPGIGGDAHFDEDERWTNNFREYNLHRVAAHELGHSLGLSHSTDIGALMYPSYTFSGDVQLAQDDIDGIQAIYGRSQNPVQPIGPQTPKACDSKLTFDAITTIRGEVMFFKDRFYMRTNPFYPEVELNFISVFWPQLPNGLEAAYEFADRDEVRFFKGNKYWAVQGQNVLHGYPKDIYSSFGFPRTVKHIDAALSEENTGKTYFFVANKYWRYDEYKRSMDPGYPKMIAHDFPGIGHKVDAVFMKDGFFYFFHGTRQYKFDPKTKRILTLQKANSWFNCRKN
Chain of human 72 kDa gelatinase (MMP-2) (P08253 30-660 limits assumed): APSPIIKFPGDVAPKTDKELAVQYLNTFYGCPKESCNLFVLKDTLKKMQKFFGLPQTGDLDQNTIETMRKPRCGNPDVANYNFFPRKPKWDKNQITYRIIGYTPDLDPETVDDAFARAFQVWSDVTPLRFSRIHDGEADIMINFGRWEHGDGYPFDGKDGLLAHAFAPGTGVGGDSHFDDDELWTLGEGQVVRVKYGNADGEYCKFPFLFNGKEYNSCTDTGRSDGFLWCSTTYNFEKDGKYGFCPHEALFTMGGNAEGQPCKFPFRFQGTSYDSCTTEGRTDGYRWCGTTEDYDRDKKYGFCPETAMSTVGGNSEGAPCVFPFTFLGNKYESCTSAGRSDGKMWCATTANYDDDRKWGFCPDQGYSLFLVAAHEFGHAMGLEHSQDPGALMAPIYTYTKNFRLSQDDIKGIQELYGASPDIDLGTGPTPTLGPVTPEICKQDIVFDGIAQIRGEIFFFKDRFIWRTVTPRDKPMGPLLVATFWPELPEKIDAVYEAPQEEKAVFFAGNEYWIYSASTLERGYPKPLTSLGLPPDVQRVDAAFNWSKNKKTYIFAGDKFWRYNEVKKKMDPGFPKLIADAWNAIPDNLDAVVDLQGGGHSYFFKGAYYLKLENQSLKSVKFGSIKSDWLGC
Chain of human 92 kDa gelatinase (MMP-9) (P14780 20-707 limits assumed): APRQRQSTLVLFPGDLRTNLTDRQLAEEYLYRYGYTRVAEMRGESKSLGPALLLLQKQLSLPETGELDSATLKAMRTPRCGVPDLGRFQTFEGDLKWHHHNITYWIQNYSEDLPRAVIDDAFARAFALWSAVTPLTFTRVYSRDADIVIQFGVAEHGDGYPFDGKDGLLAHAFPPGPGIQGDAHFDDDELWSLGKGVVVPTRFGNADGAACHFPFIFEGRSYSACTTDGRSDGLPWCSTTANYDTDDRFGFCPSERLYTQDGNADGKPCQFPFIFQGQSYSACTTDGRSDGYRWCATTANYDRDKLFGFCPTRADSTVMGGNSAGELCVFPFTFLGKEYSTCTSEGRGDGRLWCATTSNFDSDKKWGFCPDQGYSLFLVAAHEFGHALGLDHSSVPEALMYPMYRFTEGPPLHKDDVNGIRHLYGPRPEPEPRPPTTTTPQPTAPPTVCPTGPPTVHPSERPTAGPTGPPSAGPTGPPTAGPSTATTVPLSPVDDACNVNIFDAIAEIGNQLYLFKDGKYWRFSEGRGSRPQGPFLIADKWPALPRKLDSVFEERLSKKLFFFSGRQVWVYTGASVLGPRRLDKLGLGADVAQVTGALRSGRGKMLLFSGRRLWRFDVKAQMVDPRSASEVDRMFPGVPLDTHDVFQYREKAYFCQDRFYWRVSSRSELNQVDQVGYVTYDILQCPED

Row | percent of mouse collagenase-3 binding [1] | percent of mouse collagenase-3 binding [2] | Substance | other results
1 | 80.8% | 67.8% | HM(166-228)/H chimeric collagenase (from UniProt P03956 20-160; P33435 166-228; P03956 224-408) (enzyme) | percent of mouse collagenase-3 binding [3]: 97.2%
2 | 99.1% | 95.5% | MH(213-267)/M chimeric collagenase (exon 5 replacement) (from UniProt P33435 20-212; P03956 213-267; P33435 268-472) (enzyme) | percent of mouse collagenase-3 binding [3]: 98.7%

More lines, now with the values behind:

Row | Substance | percent of mouse collagenase-3 binding [1] | percent of mouse collagenase-3 binding [2] | other results
3 | C-terminally truncated mouse collagenase-3, M(1-265) (from UniProt P33435 20-265) (enzyme) | 100% | 100% | 
4 | H/M(229-472) chimeric collagenase (from UniProt P03956 20-223; P33435 229-472) (enzyme) | 2.2% | 16.5% | 
5 | HM(141-228)/H chimeric collagenase (from UniProt P03956 20-135; P33435 141-228; P03956 224-408) (enzyme) | 94.3% | 89.9% | percent of mouse collagenase-3 binding [3]: 75.1%
6 | HM/M(141-472) chimeric collagenase (from UniProt P03956 20-135; P33435 141-472) (enzyme) | 84.4% | 95.7% | 
7 | M(1-228)/H chimeric collagenase (from UniProt P33435 20-228; P03956 224-408) (enzyme) | 85.9% | 85.3% | competition efficiency compared to full-length collagenase-3 [4]: > 90%; percent of mouse collagenase-3 binding [3]: 41.9%
8 | ^125I collagenase-3 of Example 3 |  |  | reduction of collagenase-3 internalization by RAP in osteoarthritis chondrocytes [5]: by 74.3%
9 | ^125I collagenase-3 of Example 3 (enzyme) |  |  | inhibition of collagenase-3 internalization by receptor-associated protein in control human chondrocytes [6]: 88.2%
10 | human 72 kDa gelatinase (MMP-2) (from UniProt P08253 30-660) (enzyme) |  |  | Specific binding (fmol/2.6 × 10^5 cells) [7]: 0
11 | human 92 kDa gelatinase (MMP-9) (from UniProt P14780 20-707) (enzyme) |  |  | Specific binding (fmol/2.6 × 10^5 cells) [8]: 3.9
12 | human fibroblast collagenase-1 (MMP-1) (from UniProt P03956 100-469) (enzyme) |  | 0% | Specific binding (fmol/2.6 × 10^5 cells) [7]: 0.1
13 | human stromelysin-1 (MMP-3) (from UniProt P08254 18-477) (enzyme) |  |  | Specific binding (fmol/2.6 × 10^5 cells) [7]: 0
14 | recombinant mouse collagenase-3 (mMMP-13, residues 1-472) (from UniProt P33435 20-472) (enzyme) | 100% | 100% | 
